# Assay results taken from paper PMC8406295, “Highly Basic Clusters in the Herpes Simplex Virus 1 Nuclear Egress Complex Drive Membrane Budding by Inducing Lipid Ordering” (mBio, 2021).
# * marks the point of attachment. MTSL = spin label, CC1(C)C=C(CS*)C(C)(C)N1[O]
# T1: UL34^(174–194) peptide, unlabelled (herpes simplex virus 1 (HSV-1), UniProt P10218 174-194, N-terminally acetylated; C-terminally amidated)
# T1 construct: also called UL34 MPR peptide; source: synthetic peptide, bought: Peptide 2.0
# T1 peptide: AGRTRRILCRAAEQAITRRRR
# T2: UL34^(174–194) peptide, spin-labelled at C182 (herpes simplex virus 1 (HSV-1), UniProt P10218 174-194, N-terminally acetylated; C-terminally amidated; MTSL spin label on the native cysteine C182)
# T2 construct: also called UL34 MPR peptide; C182_(34); source: synthetic peptide, bought: Peptide 2.0
# T2 peptide: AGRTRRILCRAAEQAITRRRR
# B1: UL31^(41–50) peptide (peptide)
# peptide: Ac-RKSLPPHARK-NH2
# notes: also called UL31 mini-MPR peptide; source: synthetic peptide, bought: Peptide 2.0
# B2: UL31^(22–42) peptide (peptide)
# peptide: Ac-RRSRSSAAGGTLGVVRRASRK-NH2
# notes: source: synthetic peptide, bought: Peptide 2.0
# B3: UL31^(41–C51) peptide, spin-labelled (peptide)
# peptide: Ac-RKSLPPHARKC(MTSL)-NH2
# SMILES: CC(=O)N[C@@H](CCCNC(=N)N)C(=O)N[C@@H](CCCCN)C(=O)N[C@@H](CO)C(=O)N[C@@H](CC(C)C)C(=O)N1CCC[C@H]1C(=O)N1CCC[C@H]1C(=O)N[C@@H](Cc1c[nH]cn1)C(=O)N[C@@H](C)C(=O)N[C@@H](CCCNC(=N)N)C(=O)N[C@@H](CCCCN)C(=O)N[C@@H](CSSCC1=CC(C)(C)N([O])C1(C)C)C(N)=O
# notes: also called mini-MPR with C-terminal cysteine; C51_(31); source: synthetic peptide, bought: Peptide 2.0
# B4: UL31^(C40–50) peptide, spin-labelled (peptide)
# peptide: Ac-C(MTSL)RKSLPPHARK-NH2
# SMILES: CC(=O)N[C@@H](CSSCC1=CC(C)(C)N([O])C1(C)C)C(=O)N[C@@H](CCCNC(=N)N)C(=O)N[C@@H](CCCCN)C(=O)N[C@@H](CO)C(=O)N[C@@H](CC(C)C)C(=O)N1CCC[C@H]1C(=O)N1CCC[C@H]1C(=O)N[C@@H](Cc1c[nH]cn1)C(=O)N[C@@H](C)C(=O)N[C@@H](CCCNC(=N)N)C(=O)N[C@@H](CCCCN)C(N)=O
# notes: also called mini-MPR with N-terminal cysteine; C40_(31); source: synthetic peptide, bought: Peptide 2.0
# B5: UL31^(C21–42) peptide, spin-labelled (peptide)
# peptide: Ac-C(MTSL)RRSRSSAAGGTLGVVRRASRK-NH2
# notes: also called C21_(31); source: synthetic peptide, bought: Peptide 2.0
# B6: UL31^(22–C43) peptide, spin-labelled (peptide)
# peptide: Ac-RRSRSSAAGGTLGVVRRASRKC(MTSL)-NH2
# notes: also called C43_(31); source: synthetic peptide, bought: Peptide 2.0
# Target: T1, UL34^(174–194) peptide, unlabelled
# Experiment: cross-linking; SM(PEG)6 at 50-fold molar excess, 30 min at room temperature in PBS, with 1 mM POPC/POPS/POPA 3:1:1 SUVs; 50 μM peptide, or 25 μM each in mixtures; 16% Tris-tricine SDS-PAGE, Coomassie
# Conditions: both partners purified
row,Binder,binding result
1,B1,binds
2,B2,binds

# Target: T2, UL34^(174–194) peptide, spin-labelled …
# Experiment: DEER (double electron-electron resonance) spectroscopy; MTSL spin-labelled peptides, approximately 50 μM peptide or 1:1 peptide mixture with POPC/POPS/POPA 3:1:1 SUVs, 1:200 P/L ratio, incubated 10 min at 25°C, frozen, measured at 60 K
# Conditions: both partners purified
row,Binder,binding result
1,B3,binds
2,B4,binds
3,B5,binds
4,B6,binds
